Assay results taken from patent EP4755919A1, “ANTI-TROP2 ANTIBODY, CONJUGATE COMPRISING SAID ANTIBODY, AND USE THEREOF” (Hanano Technologies Limited, priority 2023, dated 2024).
Numbering of substitutions follows the chain as printed.

Tests used:
serum albumin = serum albumin (UniProt P02768); experiment: relative binding activity against HuNb3-11; method not described
Trop2 [1] = target: T1, Trop2 (UniProt P09758 27-323, limits assumed); experiment: flow cytometry on A431 cells, APC anti-HA detection
T1 construct: whole, on cells; also called TACSTD2; Trop2 on A431 cells
T1 sequence (looked up): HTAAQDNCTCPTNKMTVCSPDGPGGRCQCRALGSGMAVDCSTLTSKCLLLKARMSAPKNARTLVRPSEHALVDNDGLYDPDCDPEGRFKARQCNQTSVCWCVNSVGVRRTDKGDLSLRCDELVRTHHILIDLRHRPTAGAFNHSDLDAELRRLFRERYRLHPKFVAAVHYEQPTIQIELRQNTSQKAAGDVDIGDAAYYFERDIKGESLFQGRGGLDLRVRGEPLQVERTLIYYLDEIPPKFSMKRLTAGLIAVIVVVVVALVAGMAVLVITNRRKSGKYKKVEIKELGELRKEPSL

Trop2 [2] = target: T1, Trop2; experiment: flow cytometry on A431 and BxPC3 cells, human albumin added during incubation, goat anti-VHH and Alexa Fluor488 donkey anti-goat detection
A431 cells [3] = experiment: Binding activity of long-acting Trop2 antibody conjugated drug to A431 cells by flow cytometry
Procedure: (§1) Flow cytometry was used to detect the binding activity of these candidate single domain antibodies to Trop2 high expression cell line A431. After the cultured A431 cells were digested with trypsin and neutralized in complete medium, the cells were washed once with PBS, collected and counted, and the cells were added to a 96-well V-bottom plate, 2E5 cells/well. Diluted candidate single domain antibodies and control antibodies BMK1, BMK2 and BMK3 (control antibody sequences are all referred to patent CN111518212B, where BMK1 sequence is the amino acid sequence as set forth in SEQ ID NO: 78, BMK2 sequence is the amino acid sequence as set forth in SEQ ID NO: 65, and BMK3 sequence is the amino acid sequence as set forth in SEQ ID NO: 68) were added to the plate respectively and incubated at 4°C for 40min. After centrifugation, cells were washed with PBS twice, and APC anti-HA antibody was added to incubate at 4°C for 40min. […] APC signal of each sample was detected by flow cytometry.
(§2) The long-acting Trop2 antibody conjugated drug HuNb1-Alb Nb1-MMAE was incubated with A431 and BxPC3 cells, and the binding activity of the antibody conjugated drug to the cells was detected by flow cytometry. […] After centrifugation, the cells were washed and the supernatant was removed, and the cells were resuspended in PBS and then the Alexa Fluor488 signal of each sample was detected by flow cytometry.

BxPC3 cells [4] = experiment: Binding activity of long-acting Trop2 antibody conjugated drug to BxPC3 cells by flow cytometry
Procedure: as §1, §2

A431 cells [5] = experiment: Cell killing activity on A431 cells by Cell Counting Kit-8 (CCK8); assay type: cell-based; details: pre-incubated with human serum albumin, 96 hours culture, CCK8 OD450 (FIG.7)
Procedure: (§3) The long-acting Trop2 single domain antibody conjugated drug HuNb1-Alb […]-MMAE was gradiently diluted in cell medium and incubated with human serum albumin for 20 minutes, then co-incubated with A431 cells and BxPC3 cells, respectively. Cell Counting Kit-8 was added after 96 hours of culture at 37°C in 5% CO2 incubator, and the cells were incubated in the incubator for 2.5 hours. After reading the data (OD450) in the microplate reader, IC50 was calculated.

BxPC3 cells [6] = experiment: Cell killing activity on BxPC3 cells by Cell Counting Kit-8 (CCK8); assay type: cell-based; details: pre-incubated with human serum albumin, 96 hours culture, CCK8 OD450 (FIG.8)
Procedure: as §3

[7] = test system: BxPC3 pancreatic cancer cells; experiment: Anti-tumor activity in BxPC3 tumor-bearing mice; assay type: in vivo; details: NCG mice
Procedure: NCG mice were inoculated with BxPC3 pancreatic cancer cells for tumorigenesis. When the tumors grew to about 80mm^3, they were divided into groups, with 6 mice in each group. Three dose groups were set up to be intraperitoneally injected with HuNb1-Alb Nb1-MMAE at 0.2mg/kg, 1mg/kg and 5mg/kg, three times a week, respectively. The negative control group was intraperitoneally injected with PBS. The positive control group was intraperitoneally injected with 150mg/kg Gemcitabine, three times a week.

Trop2 [8] = target: T1, Trop2; experiment: flow cytometry on BxPC3 cells, APC anti-HA detection

serum albumin, sequence (P02768 25-609 limits assumed): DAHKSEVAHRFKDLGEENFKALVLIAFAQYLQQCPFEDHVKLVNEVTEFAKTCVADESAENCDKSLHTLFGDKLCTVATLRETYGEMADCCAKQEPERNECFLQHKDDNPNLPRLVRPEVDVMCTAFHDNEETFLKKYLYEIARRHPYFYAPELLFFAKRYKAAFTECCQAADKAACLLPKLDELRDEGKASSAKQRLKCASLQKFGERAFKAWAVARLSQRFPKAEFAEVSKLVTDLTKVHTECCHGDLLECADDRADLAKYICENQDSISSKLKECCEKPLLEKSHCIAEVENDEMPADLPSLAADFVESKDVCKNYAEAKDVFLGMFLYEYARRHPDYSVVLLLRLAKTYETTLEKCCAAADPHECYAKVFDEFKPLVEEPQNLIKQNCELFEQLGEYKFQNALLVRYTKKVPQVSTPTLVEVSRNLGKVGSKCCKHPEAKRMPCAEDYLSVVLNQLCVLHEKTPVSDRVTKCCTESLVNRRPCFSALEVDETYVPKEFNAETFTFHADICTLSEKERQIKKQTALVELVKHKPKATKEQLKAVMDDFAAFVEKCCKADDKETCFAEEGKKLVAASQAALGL

B1: anti-serum albumin single domain antibody Alb Nb1 (VHH)
VHH: EVQLQESGGGLVEPGGSLRLSCVASGFTFQHYAMSWVRQAPGKGLEWVSSISLVGGGTSYADSVKGRFTMSRDNAKNTLYLQLNSLKSEDTAMYYCVRGWHPDVPRPLGQGTLVTVSS
Relative binding activity EC50 (serum albumin): 92%

B2: anti-serum albumin single domain antibody Alb Nb4 (VHH)
VHH: B1 VHH with L53T
Relative binding activity EC50 (serum albumin): 71%

B3: anti-serum albumin single domain antibody Alb Nb2 (VHH)
VHH: B1 VHH with L53V
Relative binding activity EC50 (serum albumin): 95%

B4: anti-serum albumin single domain antibody Alb Nb3 (VHH)
VHH: B1 VHH with L53I
Relative binding activity EC50 (serum albumin): 80%

B5: humanized Trop2 single domain antibody HuNb2 (VHH)
VHH: EVQLLESGGGLVQPGGSLRLSCVDSGSTYSRRYMGWFRRAPGKGLEGVSVISPYGDSTYYADSVKDRFTISRDNAKNTVYLQMNSLKPEDTAMYYCAASWPYQTASLDAMDFTDWGQGTLVTVSS
notes: also called Trop2 HuNb2; not shown: HA tag used for APC anti-HA detection
binding result (Trop2 [1]): binds

B6: long-acting Trop2 antibody conjugated drug HuNb1-Alb Nb1-MMAE (bispecific antibody)
chain: EVQLLESGGGLVQPGGSLRLSCAASGFTFSRACMGWFRQASGKGLEGVAQVYTGGGSTSYADSVKGRFTISQDNAKNTLYLQMNSLKPEDTAVYYCAVGQPYGACYYSDLAPADFSYWGQGTLVTVSSGGGGSGGGGSGGGGSGGGGSEVQLQESGGGLVEPGGSLRLSCVASGFTFQHYAMSWVRQAPGKGLEWVSSISLVGGGTSYADSVKGRFTMSRDNAKNTLYLQLNSLKSEDTAMYYCVRGWHPDVPRPLGQGTLVTVSSGGC
modifications: vc-PAB-MMAE (Monomethylauristatin E) coupled to the free cysteine (C) at the C-terminus
notes: also called HuNb1-Alb Nb1-GGC conjugated with vc-PAB-MMAE
binding result (Trop2 [2]): binds

B7: HuNb1-Alb Nb1-MMAE: long-acting Trop2 antibody conjugated drug: HuNb1-Alb Nb1-GGC coupled with vc-PAB-MMAE (Monomethylauristatin E) (conjugate)
chain: B6 chain
binding activity to A431 cells (A431 cells [3]; flow cytometry, Alexa Fluor488 signal (FIG.5)): good binding activity
effect of the presence of HSA protein on binding to A431 cells (A431 cells [3]; human blood albumin added during incubation (FIG.5)): not affected by the presence of HSA protein
binding activity to BxPC3 cells (BxPC3 cells [4]; flow cytometry, Alexa Fluor488 signal (FIG.6)): good binding activity
effect of the presence of HSA protein on binding to BxPC3 cells (BxPC3 cells [4]; human blood albumin added during incubation (FIG.6)): not affected by the presence of HSA protein
killing effect on A431 cells (A431 cells [5]): significant killing effect
killing effect on BxPC3 cells (BxPC3 cells [6]): significant killing effect
tumor of high-dose group ([7]; high-dose group (5mg/kg intraperitoneal, three times a week), after treatment for 20 days): completely fades
treatment effect compared with Gemcitabine ([7]; high-dose group versus 150mg/kg Gemcitabine intraperitoneal, three times a week): significantly better than the treatment effect of Gemcitabine
BXPC3 tumor killing activity ([7]; intraperitoneal 0.2mg/kg, 1mg/kg and 5mg/kg, three times a week (FIG.9)): significant BXPC3 tumor killing activity

B8: Trop2 single domain antibody Nb1 (VHH)
VHH: QVQLQESGGGSVQAGGSLRLSCAASGFTFSRACMGWFRQASGKEREGVAQVYTGGGSTSYADSVKGRFTISQDNAKNTLYLQMNSLKPEDTAVYYCAVGQPYGACYYSDLAPADFSYWGQGTQVTVSS
notes: Camel-derived VHH expressed and purified from E. coli (phage vector pMECS); detected through an HA tag; also called Trop2 Nb1; candidate antibody Nb1; not shown: HA tag (and any other vector-derived tag from pMECS) used for APC anti-HA detection
binding result (Trop2 [1]): binds

B9: humanized Trop2 single domain antibody HuNb1 (VHH)
VHH: B8 VHH with Q1E, Q5L, S11L, A14P, E44G, R45L, Q123L
notes: Humanized form of Nb1; also called Trop2 HuNb1; not shown: HA tag used for APC anti-HA detection
binding result (Trop2 [8]): binds
